# ± gives the standard deviation of the averaged measurements.
# B1: library; a variant is named by its letters at N, in order (parent)
# chain: GCUGUCACCGGUGCUUGGUACGUUAUAUUCAGCCGGUCUGAUGAGUCUNNNNNNAGACGAAACAGC
# What was measured:
# [1] = variants of: B1; assay: normalized RNA/DNA level without ligand (relative to sTRSVctl = 100) (log10 (% of sTRSVctl)); HEK293T overexpressing SLC46A1; higher = less ribozyme self-cleavage, higher mRNA level; details: without (6R,S)-folinic acid; ligand present: no
# In short: (§1)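 Only sequences with at least 100 DNA reads were analyzed, from HEK293T cells transfected with 4 µg per 6-well well of ribozyme switch library plasmids 72 h before RNA extraction with EDTA. Any ligand was added 1 h before transfection. RNA level was defined as RNA over DNA reads, normalized to a spiked-in non-cleaving sequence or to the top sequences, then scaled and log-transformed. The top set was 25 sequences, and the scaling was ×100 followed by log10.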
# [2] = variants of: B1; assay: normalized RNA/DNA level with ligand (relative to sTRSVctl = 100) (log10 (% of sTRSVctl)); HEK293T overexpressing SLC46A1; ligand concentration (+) RNA-Seq: 6 mM; higher = less ribozyme self-cleavage, higher mRNA level; details: with (6R,S)-folinic acid; ligand present: yes
# In short: as §1
Variant,normalized RNA/DNA level without ligand (log10) [1],normalized RNA/DNA level with ligand (log10) [2]
UGAAUA,1.965 ± 0.0093,2.03 ± 0.026
UGAAUC,2.07 ± 0.021,2.06 ± 0.047
ACUGUA,1.9633 ± 7.1e-05,2.026 ± 0.014
ACUGUU,2 ± 0.02,2.01 ± 0.037
ACUGUC,2.08 ± 0.024,2.04 ± 0.059
UCUUCC,2.026 ± 0.018,2.043 ± 0.018
UCUUCA,2.028 ± 0.0079,2.04 ± 0.046
UCUUCU,2.064 ± 0.0051,2.095 ± 0.011
UCUUCG,1.91 ± 0.02,2.0469 ± 0.0016
UCUCUU,2.06 ± 0.034,2.06 ± 0.059
UCUCUC,2.076 ± 0.015,2.04 ± 0.035
UCUCUA,1.997 ± 0.0062,2.01 ± 0.04
UCUCUG,1.89 ± 0.011,1.96 ± 0.027
CGAACG,2.0268 ± 0.0006,2.024 ± 0.0057
CGAACU,2 ± 0.023,2 ± 0.05
UCUGGU,1.9654 ± 0.0015,2.02 ± 0.032
UCUGGC,2.03 ± 0.022,2.0358 ± 0.00061
UCUUGA,1.987 ± 0.0069,2.025 ± 0.006
UCUUGU,1.976 ± 0.014,2.02 ± 0.051
GCUCGC,2.02 ± 0.027,2.0264 ± 0.00071
GCUCGG,2.034 ± 0.016,2.03 ± 0.026
GCUCGA,2.039 ± 0.0067,2.02 ± 0.065
ACUUUG,1.94 ± 0.043,2.001 ± 0.015
ACUUUU,2.037 ± 0.012,2 ± 0.038

Variant,normalized RNA/DNA level without ligand (log10) [1],normalized RNA/DNA level with ligand (log10) [2]
ACUUUC,2.041 ± 0.0054,2.05 ± 0.038
UCUUUC,2.017 ± 0.0074,1.996 ± 0.0066
UCUUUG,1.81 ± 0.031,1.952 ± 0.019
UCUUUA,2.001 ± 0.0056,2 ± 0.015
CGAAUG,2.0224 ± 0.0012,2.034 ± 0.012
CGAAUC,2.05 ± 0.019,2.03 ± 0.034
ACUCGG,1.979 ± 0.013,2.02 ± 0.024
ACUCGC,2.034 ± 0.012,2.01 ± 0.041
ACUCGA,1.994 ± 0.019,2.03 ± 0.025
ACUCGU,2.028 ± 0.016,1.983 ± 0.016
GCUCCC,2.06 ± 0.031,2.06 ± 0.036
GCUCCU,2.09 ± 0.024,2.07 ± 0.04
GCUCCA,2.02 ± 0.019,2.03 ± 0.037
GCUCCG,2.027 ± 0.0072,2.05 ± 0.055
CCUUCA,2.07 ± 0.021,2.04 ± 0.079
CCUUCC,2.067 ± 0.019,2.01 ± 0.024
CCUUCG,2.017 ± 0.019,2.045 ± 0.012
CCUUCU,2.01 ± 0.024,2.02 ± 0.041
CCUCUG,2.035 ± 0.011,2 ± 0.04
CCUCUC,2.072 ± 0.018,2.04 ± 0.078
CCUCUU,2.033 ± 0.012,2.022 ± 0.0093
CCUCUA,2.029 ± 0.0036,2.03 ± 0.031
UCUGCG,1.826 ± 0.008,2.03 ± 0.034
UCUGCU,2.069 ± 0.0056,2.07 ± 0.0045

Variant,normalized RNA/DNA level without ligand (log10) [1],normalized RNA/DNA level with ligand (log10) [2]
UCUGCC,1.981 ± 0.0055,2.02 ± 0.025
UCUGCA,1.9967 ± 0.0014,2.06 ± 0.022
UGAACA,1.9795 ± 0.00092,2.01 ± 0.037
UGAACC,2.011 ± 0.0035,2 ± 0.031
UCUCCC,2.07 ± 0.021,2.06 ± 0.05
UCUCCG,1.96 ± 0.065,2.022 ± 0.013
UCUCCU,2.01 ± 0.028,2.02 ± 0.032
UCUCCA,2.017 ± 0.0042,2.023 ± 0.0081
CGAAAC,1.985 ± 0.0043,1.99 ± 0.04
CGAAAU,1.942 ± 0.0046,1.967 ± 0.013
CCUGCG,2.01 ± 0.016,2.033 ± 0.02
CCUGCC,2.058 ± 0.0075,2 ± 0.068
CCUGCA,2.047 ± 0.0035,2.059 ± 0.0067
ACUUGC,2.036 ± 0.0029,2.03 ± 0.03
ACUUGU,2.062 ± 0.011,2.064 ± 0.013
ACUUGA,1.9759 ± 0.0013,2.03 ± 0.041
ACUCCC,2.054 ± 0.0096,2.02 ± 0.048
ACUCCA,2.056 ± 0.0064,2.04 ± 0.054
ACUCCG,2.001 ± 0.014,2.03 ± 0.064
ACUCCU,2.075 ± 0.0094,2.08 ± 0.05
ACUCAG,1.967 ± 0.0061,1.98 ± 0.036
ACUCAC,2.058 ± 0.007,2.045 ± 0.0072
CCUACG,2.072 ± 0.0081,2.0351 ± 0.0014
CCUACU,2.062 ± 0.0069,2.04 ± 0.0079

Variant,normalized RNA/DNA level without ligand (log10) [1],normalized RNA/DNA level with ligand (log10) [2]
GCUGUA,2.019 ± 0.018,2.04 ± 0.033
GCUGUG,2.03 ± 0.028,2.04 ± 0.055
GCUGUC,2.0466 ± 0.00088,2.02 ± 0.026
UCUUAU,2 ± 0.028,2 ± 0.013
UCUUAC,2.003 ± 0.0077,1.998 ± 0.0031
UCUUAA,1.962 ± 0.011,2.002 ± 0.0044
ACUGAU,1.9488 ± 0.0011,2 ± 0.031
ACUGAC,2.002 ± 0.0086,1.999 ± 0.0088
ACUUCA,2.01 ± 0.03,2 ± 0.04
ACUUCC,2.058 ± 0.009,2.0589 ± 0.002
ACUUCG,1.968 ± 0.0047,2.02 ± 0.029
ACUUCU,2.031 ± 0.0021,1.99 ± 0.059
UCUAGC,2.03 ± 0.024,2.02 ± 0.051
UCUAGG,1.982 ± 0.015,2.05 ± 0.026
UCUAGU,1.984 ± 0.0028,2.04 ± 0.032
UCUAGA,2.05 ± 0.024,2.043 ± 0.0037
GCUGGA,2.06 ± 0.0022,2.07 ± 0.046
GCUGGG,1.979 ± 0.0048,2.01 ± 0.021
GCUGGC,1.964 ± 0.017,1.916 ± 0.0083
CCUUUU,2.031 ± 0.0026,2 ± 0.027
CCUUUG,2.039 ± 0.017,2.01 ± 0.067
CCUUUC,2.062 ± 0.0044,2.01 ± 0.053
UCUACC,2.0547 ± 0.001,2.054 ± 0.018
UCUACU,2.019 ± 0.0065,2.03 ± 0.029

Variant,normalized RNA/DNA level without ligand (log10) [1],normalized RNA/DNA level with ligand (log10) [2]
UCUACG,1.891 ± 0.0021,2.01 ± 0.017
GGAACU,2.035 ± 0.01,2.029 ± 0.016
GGAACA,2.0061 ± 0.00047,2.02 ± 0.043
GGAACG,2 ± 0.027,2.03 ± 0.032
GGAACC,2.036 ± 0.01,2.04 ± 0.06
UCUCGC,2.1 ± 0.032,2.05 ± 0.028
UCUCGG,2.03 ± 0.034,2.042 ± 0.0089
AGAAUA,1.9881 ± 0.00025,2.02 ± 0.037
AGAAUC,2.0639 ± 0.001,2.05 ± 0.033
AGAAUG,1.893 ± 0.0045,2 ± 0.039
CCUAUU,2.038 ± 0.0071,2.04 ± 0.022
CCUAUG,2.04 ± 0.031,2.06 ± 0.028
CCUAUA,2.029 ± 0.0081,2.01 ± 0.033
CCUAUC,2.1 ± 0.023,2.0649 ± 0.0011
GGAAUA,2.022 ± 0.0049,2.04 ± 0.04
GCUGAG,1.974 ± 0.013,2.04 ± 0.039
GCUGAC,1.986 ± 0.0051,2.01 ± 0.045
CCUUAA,2.01 ± 0.0061,2.003 ± 0.013
CCUUAC,2.02 ± 0.027,2.056 ± 0.014
CCUUAG,1.934 ± 0.015,1.96 ± 0.046
